# From the Human Domainome abundance scans (Beltran et al. 2025)
# ± gives the uncertainty stated by the source.
# B1: Gamma-crystallin S, residues 96 to 176; numbered along this chain, P22914 (parent)
# chain: IQIFEKGDFSGQMYETTEDCPSIMEQFHMREIHSCKVLEGVWIFYELPNYRGRQYLLDKKEYRKPIDWGAASPAVQSFRRI
# Variants of: B1
# Experiment: abundance fitness (aPCA) (normalised: wild type 0, dead -1); higher = more abundant; growth selection in yeast, the domain comes from the species named
# Conditions: Homo sapiens
row,Variant,abundance fitness
1,IQIFEKGDFSGQMYETTEDCPSIMEQFHMREIHSCKVLEGVWIFTELPNYRGRQYLLDKKEYRKPIDWGAASPAVQSFRRI,-0.304 ± 0.14
2,IQIFEKGDFSGQMYETTEDCPSIMEQFHMREIHSCKVLEGVWIFVELPNYRGRQYLLDKKEYRKPIDWGAASPAVQSFRRI,-1.07 ± 0.16
3,IQIFEKGDFSGQMYETTEDCPSIMEQFHMREIHSCKVLEGVWIFWELPNYRGRQYLLDKKEYRKPIDWGAASPAVQSFRRI,-0.065 ± 0.092
4,IQIFEKGDFSGQMYETTEDCPSIMEQFHMREIHSCKVLEGVWIFYALPNYRGRQYLLDKKEYRKPIDWGAASPAVQSFRRI,-0.016 ± 0.082
5,IQIFEKGDFSGQMYETTEDCPSIMEQFHMREIHSCKVLEGVWIFYCLPNYRGRQYLLDKKEYRKPIDWGAASPAVQSFRRI,-0.008 ± 0.19
6,IQIFEKGDFSGQMYETTEDCPSIMEQFHMREIHSCKVLEGVWIFYDLPNYRGRQYLLDKKEYRKPIDWGAASPAVQSFRRI,-0.476 ± 0.26
7,IQIFEKGDFSGQMYETTEDCPSIMEQFHMREIHSCKVLEGVWIFYFLPNYRGRQYLLDKKEYRKPIDWGAASPAVQSFRRI,-0.584 ± 0.14
8,IQIFEKGDFSGQMYETTEDCPSIMEQFHMREIHSCKVLEGVWIFYGLPNYRGRQYLLDKKEYRKPIDWGAASPAVQSFRRI,-0.094 ± 0.051
9,IQIFEKGDFSGQMYETTEDCPSIMEQFHMREIHSCKVLEGVWIFYHLPNYRGRQYLLDKKEYRKPIDWGAASPAVQSFRRI,-0.047 ± 0.21
10,IQIFEKGDFSGQMYETTEDCPSIMEQFHMREIHSCKVLEGVWIFYILPNYRGRQYLLDKKEYRKPIDWGAASPAVQSFRRI,-0.777 ± 0.25
11,IQIFEKGDFSGQMYETTEDCPSIMEQFHMREIHSCKVLEGVWIFYLLPNYRGRQYLLDKKEYRKPIDWGAASPAVQSFRRI,-0.279 ± 0.052
12,IQIFEKGDFSGQMYETTEDCPSIMEQFHMREIHSCKVLEGVWIFYMLPNYRGRQYLLDKKEYRKPIDWGAASPAVQSFRRI,-0.21 ± 0.091
13,IQIFEKGDFSGQMYETTEDCPSIMEQFHMREIHSCKVLEGVWIFYNLPNYRGRQYLLDKKEYRKPIDWGAASPAVQSFRRI,-0.275 ± 0.16
14,IQIFEKGDFSGQMYETTEDCPSIMEQFHMREIHSCKVLEGVWIFYPLPNYRGRQYLLDKKEYRKPIDWGAASPAVQSFRRI,-0.16 ± 0.082
15,IQIFEKGDFSGQMYETTEDCPSIMEQFHMREIHSCKVLEGVWIFYQLPNYRGRQYLLDKKEYRKPIDWGAASPAVQSFRRI,0.034 ± 0.1
16,IQIFEKGDFSGQMYETTEDCPSIMEQFHMREIHSCKVLEGVWIFYRLPNYRGRQYLLDKKEYRKPIDWGAASPAVQSFRRI,-0.137 ± 0.053
17,IQIFEKGDFSGQMYETTEDCPSIMEQFHMREIHSCKVLEGVWIFYSLPNYRGRQYLLDKKEYRKPIDWGAASPAVQSFRRI,-0.101 ± 0.054

row,Variant,abundance fitness
1,IQIFEKGDFSGQMYETTEDCPSIMEQFHMREIHSCKVLEGVWIFYTLPNYRGRQYLLDKKEYRKPIDWGAASPAVQSFRRI,-0.13 ± 0.096
2,IQIFEKGDFSGQMYETTEDCPSIMEQFHMREIHSCKVLEGVWIFYVLPNYRGRQYLLDKKEYRKPIDWGAASPAVQSFRRI,-0.386 ± 0.059
3,IQIFEKGDFSGQMYETTEDCPSIMEQFHMREIHSCKVLEGVWIFYWLPNYRGRQYLLDKKEYRKPIDWGAASPAVQSFRRI,-0.875 ± 0.11
4,IQIFEKGDFSGQMYETTEDCPSIMEQFHMREIHSCKVLEGVWIFYEAPNYRGRQYLLDKKEYRKPIDWGAASPAVQSFRRI,-0.047 ± 0.068
5,IQIFEKGDFSGQMYETTEDCPSIMEQFHMREIHSCKVLEGVWIFYECPNYRGRQYLLDKKEYRKPIDWGAASPAVQSFRRI,-0.022 ± 0.11
6,IQIFEKGDFSGQMYETTEDCPSIMEQFHMREIHSCKVLEGVWIFYEDPNYRGRQYLLDKKEYRKPIDWGAASPAVQSFRRI,-0.093 ± 0.18
7,IQIFEKGDFSGQMYETTEDCPSIMEQFHMREIHSCKVLEGVWIFYEEPNYRGRQYLLDKKEYRKPIDWGAASPAVQSFRRI,-0.004 ± 0.062
8,IQIFEKGDFSGQMYETTEDCPSIMEQFHMREIHSCKVLEGVWIFYEFPNYRGRQYLLDKKEYRKPIDWGAASPAVQSFRRI,0.046 ± 0.083
9,IQIFEKGDFSGQMYETTEDCPSIMEQFHMREIHSCKVLEGVWIFYEGPNYRGRQYLLDKKEYRKPIDWGAASPAVQSFRRI,-0.051 ± 0.037
10,IQIFEKGDFSGQMYETTEDCPSIMEQFHMREIHSCKVLEGVWIFYEHPNYRGRQYLLDKKEYRKPIDWGAASPAVQSFRRI,0.065 ± 0.11
11,IQIFEKGDFSGQMYETTEDCPSIMEQFHMREIHSCKVLEGVWIFYEIPNYRGRQYLLDKKEYRKPIDWGAASPAVQSFRRI,-0.436 ± 0.11
12,IQIFEKGDFSGQMYETTEDCPSIMEQFHMREIHSCKVLEGVWIFYEKPNYRGRQYLLDKKEYRKPIDWGAASPAVQSFRRI,0 ± 0.099
13,IQIFEKGDFSGQMYETTEDCPSIMEQFHMREIHSCKVLEGVWIFYEMPNYRGRQYLLDKKEYRKPIDWGAASPAVQSFRRI,0.07 ± 0.094
14,IQIFEKGDFSGQMYETTEDCPSIMEQFHMREIHSCKVLEGVWIFYENPNYRGRQYLLDKKEYRKPIDWGAASPAVQSFRRI,-0.203 ± 0.22
15,IQIFEKGDFSGQMYETTEDCPSIMEQFHMREIHSCKVLEGVWIFYEPPNYRGRQYLLDKKEYRKPIDWGAASPAVQSFRRI,-0.909 ± 0.26
16,IQIFEKGDFSGQMYETTEDCPSIMEQFHMREIHSCKVLEGVWIFYEQPNYRGRQYLLDKKEYRKPIDWGAASPAVQSFRRI,-0.113 ± 0.12
17,IQIFEKGDFSGQMYETTEDCPSIMEQFHMREIHSCKVLEGVWIFYERPNYRGRQYLLDKKEYRKPIDWGAASPAVQSFRRI,0.011 ± 0.042
